Here are results for one substance from patent US5747329.

The target of the assay is heavy subunit of rat kidney gamma-glutamylcysteine synthetase (rat).

As to “light subunit of rat kidney gamma-glutamylcysteine synthetase (enzyme)”, the Apparent Km for glutamate (mM), co-expressed recombinant holoenzyme is 1.8 mM and the Apparent Km for glutamate (mM), recombinant holoenzyme made by mixing the separately expressed subunits came out at 2.8 mM.
